Target: OVA peptide 323-339 presented on MHC-II molecules (Gallus gallus (Chicken)) (UniProt P01012)

proliferation (CTVlow) of OT-II CD4+ T cells after 5 days of co-culture with peptide-loaded PIP-induced cells: 10.7%
Sequence: T cell receptor of OT-II CD4+ T cells, specific for ovalbumin (OVA) peptide presented in the context of MHC-II molecules (TCR)

— patent US20240139239A1
